Assay results as given in patent publication US20060247419A1, “Translocation dependent complementation for drug screening” (BioImage A/S, priority 2002, published 2006).
One block for each molecule: values may come before it.

Assays:
[1] = molecular target: FRB-CtermEYFP173 (human; Aequorea victoria) (UniProt P42345); assay: cell-based or functional assay
[2] = molecular target: FKBP-CtermEYFP173 (human; Aequorea victoria) (UniProt P62942); assay: cell-based or functional assay
[3] = test system: β-catenin translocation to the nucleus and interaction with TCF4 (GSK3β inhibited by lithium ions); assay: TIDC: β-catenin translocation and β-catenin:TCF4 interaction dependent complementation, CHO[ps1706+ps1810]; type: cell-based, chinese hamster; details: 5 mM LiCl for 16 hours
Description: In this example, complementary halves of GFP are fused separately to β-catenin and also to histone H2B coupled to the β-catenin-binding fragment of the transcriptional co-activator TCF4. Both constructs are then co-transfected and expressed within mammalian cells. The β-catenin construct is expected to be localised entirely in the cell cytoplasm at a low level, its concentration effectively controlled by the activity of the protein kinase GSK3β. The H2B-TCF4 construct will be localised in the nuclei of cells by the highly basic histone moeity. […] The development of nuclear fluorescence in lithium-treated cells therefore effectively reports on the combined result of translocation of β-catenin to the nucleus and the subsequent interaction between β-catenin and the β-catenin binding domain of TCF4. […]
After 10 to 12 days culture in the continuous presence of the selection agents, the resulting cell lines were judged to be stably transfected. For fluorescence microscopy, aliquots of cells were transferred to Lab-Tek chambered cover glasses (Nalge Nunc International, Naperville USA) and allowed to adhere for at least 24 hours to reach about 80% confluence. Images were collected using a Zeiss LSM410 inverted confocal fluorescence microscope (Zeiss, Jena, Germany) using x40 (oil immersion) objective. […]

[4] = test system: translocation of β-catenin to the nucleus (GSK3β inhibited by lithium ions); assay: TDCzip: β-catenin translocation dependent complementation with leucine zippers, CHO[ps1736+ps1758]; type: cell-based, chinese hamster; details: 5 mM LiCl for 16 hours
Description: In this example, complementary halves of GFP are fused separately to β-catenin and to histone H2B and co-expressed within cells. The β-catenin construct is expected to be localised entirely in the cell cytoplasm at a low level, its concentration effectively controlled by the activity of the protein kinase GSK3β. The H2B construct will be localised in the nuclei of cells by the highly basic histone moeity. […] However, when GSK3β is inhibited by lithium ions, the cytoplasmic level of the β-catenin construct is expected to increase in the cytoplasm, and to translocate in significant fashion to the nucleus. Both constructs have been engineered to contain a leucine zipper domain. […] The development of nuclear fluorescence in lithium-treated cells therefore effectively reports on the translocation of β-catenin to the nucleus. […]
After 10 to 12 days culture in the continuous presence of the selection agents, the resulting cell lines were judged to be stably transfected. For fluorescence microscopy, aliquots of cells were transferred to Lab-Tek chambered cover glasses (Nalge Nunc International, Naperville USA) and allowed to adhere for at least 24 hours to reach about 80% confluence. […] Image collection, subsequent measurement and analysis of fluorescence intensity were all controlled by IPLab Spectrum for Windows software (Scanalytics, Fairfax, Va. USA). […]

[5] = test system: translocation of β-catenin to the nucleus (GSK3β inhibited by lithium; FKBP:FRB induced by rapamycin); assay: TDCrap: β-catenin translocation dependent complementation with rapamycin-inducible FKBP:FRB, CHO ps1809 with ps1827; type: cell-based, chinese hamster; details: 5 mM LiCl for 16 hours
Description: In this example, complementary halves of GFP are fused separately to β-catenin and to histone H2B and co-expressed within cells. The β-catenin construct is expected to be localised entirely in the cell cytoplasm at a low level, its concentration effectively controlled by the activity of the protein kinase GSK3β. The H2B construct will be localised in the nuclei of cells by the highly basic histone moeity. […] Both constructs have also been engineered to contain inducible interaction domains. […] The H2B construct includes FRB, which is the 93 amino acid portion of FRAP, the large PI3Kinase homolog FRAP (also known as mTOR or RAFT).
Plasmids ps1809 with ps1827 were co-transfected into chinese hamster ovary cells (CHO) using the transfection agent FuGENE™ 6 (Boehringer Mannheim Corp, USA) according to the method recommended by the suppliers. […]
After 10 to 12 days culture in the continuous presence of the selection agents, the resulting cell lines were judged to be stably transfected. For fluorescence microscopy, aliquots of cells were transferred to Lab-Tek chambered cover glasses (Nalge Nunc International, Naperville USA) and allowed to adhere for at least 24 hours to reach about 80% confluence. […] Images were collected using a Zeiss LSM410 inverted confocal fluorescence microscope (Zeiss, Jena, Germany) using x40 (oil immersion) objective. […]

[6] = molecular target: FKBP and FRB (FKBP binding part of FRAP) (Homo sapiens, UniProt P42345+P62942); assay: Rapamycin-inducible FKBP:FRB split-EYFP complementation, CHO-hIR [PS1767+PS1768] cells; type: cell-based; details: 1 μM rapamycin
Description: Probes were co-transfected in pairs into CHO-hIR cells (supra), PS1769 with PS1771 and PS1767 with PS1768, using the transfection agent FuGENE™ 6 (Boehringer Mannheim Corp, USA) according to the method recommended by the suppliers. Cells were cultured in growth medium (HAM's F12 nutrient mix with Glutamax-1, 10% foetal bovine serum (FBS), 100 μg penicillin-streptomycin mixture ml^−1 (GibcoBRL, supplied by Life Technologies, Denmark)). Transfected cells were cultured in this medium, with the addition of two selection agents appropriate to the plasmids being used, being 1 mg/ml zeocin plus 0.5 mg/mlG418 sulphate. Cells were cultured at 37° C. in 100% humidity and conditions of normal atmospheric gases supplemented with 5% CO2.
After 10 to 12 days culture in the continuous presence of the selection agents, the resulting cell lines were judged to be stably transfected. For fluorescence microscopy, aliquots of cells were transferred to Lab-Tek chambered cover glasses (Nalge Nunc International, Naperville USA) and allowed to adhere for at least 24 hours to reach about 80% confluence. Images were routinely collected using a Nikon Diaphot 300 inverted fluorescence microscope (Nikon Corp., Tokyo, Japan) using x20 (dry) and/or x40 (oil immersion) objectives and coupled to a Orca ER charged coupled device (CCD) camera (Hammamatsu Photonics K.K., Hammamatsu City, Japan). […]

EC50 of FK506 in competition with 100 nM rapamycin, EYFP fluorescence/cell, 16 hours, 'black' group [1]: 1.2 µM
Molecule: NtermE[F64L]YFP172-FKBP (from UniProt P62942 1-108)

EC50 of FK506 in competition with 100 nM rapamycin, EYFP fluorescence/cell, 16 hours, 'mid to low-green' group [2]: 1.2 µM
EC50 of rapamycin, dose-response of EYFP fluorescence at 7 and 30 hours, 'black' FACS group [2]: 0.1 µM
EC50 of rapamycin, dose-response of EYFP fluorescence at 7 and 30 hours, 'medium to low-green' FACS group [2]: 0.25 µM
half-time for development of cellular EYFP fluorescence after 3 µM rapamycin [2]: 5 h
increase in EYFP fluorescence with rapamycin over the unstimulated value, 'medium to low-green' and 'black' FACS groups [2]: > 20 fold
share of cells responding 16 hours after 1 µM rapamycin [2]: 70 % of cells
share of cells with EYFP fluorescence before rapamycin (t=0) [2]: < 5 % of cells
share of cells with greater EYFP fluorescence 4 hours after 1 µM rapamycin [2]: 40 % of cells
Molecule: NtermE[F64L]YFP172-FRB (from UniProt P42345 2025-2114)

Molecule: [Cl-].[Li+] [LiCl, lithium chloride]
number of cells containing fluorescent GFP (nuclear) [3]: the number of cells containing fluorescent GFP increases greatly
cells with GFP-bright nuclei [4]: a fraction of these cells display GFP-bright nuclei
number of cells containing fluorescent GFP (nuclear) [5]: the number of cells containing fluorescent GFP increases greatly

proportion of cells with significantly greater EYFP fluorescence ([6]; after 4 hours): approximately 40%
proportion of the cell population responding ([6]; after 16 hours): approximately 70%
Molecule: CO[C@H]1C[C@@H]2CC[C@@H](C)[C@@](O)(O2)C(=O)C(=O)N2CCCC[C@H]2C(=O)O[C@H]([C@H](C)C[C@@H]2CC[C@@H](O)[C@H](OC)C2)CC(=O)[C@H](C)/C=C(\C)[C@@H](O)[C@@H](OC)C(=O)[C@H](C)C[C@H](C)/C=C/C=C/C=C/1C [rapamycin]
